Test results as given in patent US20220401560A1, “PEPTIDE ENCAPSULATING FERRITIN” (Ajinomoto Co., Inc., priority 2019, published 2022).
No end group written: not given here.

Assays:
[1] = biological target: T1, ferritin (FTH) (Homo sapiens, UniProt P02794); test: Search for peptides capable of being encapsulated into ferritin by disassembly/reassembly process, LC-MS detection; conditions: encapsulation into ferritin (FTH); three trials
T1 construct: made in house; host or cells: Escherichia coli BL21 (DE3), plasmid pET20-FTH
Protocol: Peptides capable of being encapsulated into ferritin by disassembly/reassembly process were searched. In the disassembly/reassembly process, 1 mL of a 50 mM glycine hydrochloride buffer (pH 2.3) containing FTH at a final concentration of 5 mg/mL and the peptide at a final concentration of 0.5 mM, was left to stand at room temperature for 15 minutes. Next, 310 μL of a 1 M Tris hydrochloride buffer (pH 9.0) was added for neutralization, and left to stand at room temperature for 3 hours. After the standing, 1.2 mL of a 50 mM Tris hydrochloride buffer (pH 8.0) was added, and centrifuged (at 15,000 rpm for one minute). Thereafter, 2.5 mL of its supernatant was injected into a desalting column PD-10 (Sephadex G-25 filled product, GE Healthcare Inc.) equilibrated with a 50 mM Tris hydrochloride buffer (pH 8) for the elusion with 3.0 mL of a 50 mM Tris hydrochloride buffer (pH 8.0) to separate non-encapsulated peptides and ferritin. A whole amount (3.0 mL) of the resulting solution was concentrated to 0.1 mL by centrifugal ultrafiltration using Vivaspin 20-100K (GE Healthcare Inc.). The operation of adding 10 mL of a 50 mM Tris hydrochloride buffer to the concentrated solution and then concentrating was repeated twice to remove peptides that were not removed by PD-10 to obtain 0.1 mL of a sample solution. For the LC-MS analysis, 50 p1 of a 1 M glycine hydrochloride buffer (pH 2.3) was added to 50 μL of the sample solution and then the resulting solution was left to stand at room temperature for 15 minutes. To the solution, 900 μL of ethanol was added. Next, the resulting solution was stirred vigorously and then centrifuged (at 15,000 rpm for five minutes) for collection of the supernatant. The supernatant was analyzed using LCMS-2020 (Shimadzu Corporation) as LC-MS, Inertsil (Registered trademark) as a column, ODS-3, particle diameter of 2 μm and 2.1 mm×50 mm (GL science). Thereafter, 10 μL of the sample injected into the column was eluded at a flow rate of 0.2 mL/min for 10 minutes such that a mixing ratio of a solution A (0.1% formic acid/99.9% acetonitrile) and a solution B (50% water/50% acetonitrile) is from 95:5 to 95:5.
The encapsulation of the peptide into ferritin was studied by comparing in terms of the amount of the peptide detected by LC/MS between the sample prepared by encapsulating the peptide into ferritin at the disassembly/reassembly process and the sample prepared simply by mixing ferritin with the peptide. For example, ClAc-FHC was eluted at a retention time of 0.8 minute. […] However, the peak was not observed for the sample prepared by simply mixing the peptide with ferritin without performing the disassembly/reassembly process (FIG. 12B). FIG. 13 to FIG. 17 illustrate LC-MS results for FTH in which the peptide was encapsulated at the disassembly/reassembly process.

[2] = test system: SKBR-3 cell; test: Cell incorporation test by FACS in SKBR-3 cell; format: cell-based, human; conditions: 24 hours, FTH 100, 200 and 400 nM, or peptide without FTH encapsulation at the same peptide concentrations
Protocol: A human breast cancer derived SKBR-3 cell (20,000 cell/well, 96-well plate) was added to 100 μL media that were produced by adding the PKC-F encapsulating FTH to evaluation media (Opti-MEM™ (Thermo Fisher Scientific Inc.)+1% non-essential amino acid solution (Thermo Fisher Scientific Inc.)+1% penicillin—streptomycin (Nacalai Tesque, Inc.)) at final concentrations of 100 nM (PKC-F concentration 0.86 μM), 200 nM (PKC-F concentration 1.72 μM) and 400 nM (PKC-F concentration 3.44 μM), respectively, and then cultured at 37° C. The transferrin receptor TfR was expressed in the SKBR-3 cell. […] After that 100 μL of an Opti-MEM™ medium was added, and the cells were transferred to a plate for fluorescence-activated cell sorting (FACS), and then subjected to centrifugal separation at 400×g for 5 minutes. The cells for each were suspended in a FACS buffer (Attune™ Focusing Fluid, Thermo Fisher Scientific Inc.), and analyzed by FACS (Attune NxT, Thermo Fisher Scientific Inc.).
The cell incorporation of the obtained FAM-SV40 encapsulating FTH was evaluated. […]
After 100 μL of the Opti-MEM™ medium was added, the cells were transferred to the plate for fluorescence-activated cell sorting (FACS), and then subjected to centrifugal separation at 400×g for 5 minutes. […]

T1 sequence (P02794 whole entry): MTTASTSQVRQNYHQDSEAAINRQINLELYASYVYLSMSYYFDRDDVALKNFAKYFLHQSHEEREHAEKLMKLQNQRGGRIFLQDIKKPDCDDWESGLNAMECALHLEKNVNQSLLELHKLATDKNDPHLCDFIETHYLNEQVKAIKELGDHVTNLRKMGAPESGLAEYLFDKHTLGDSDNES

“5(6)-FAM-CGGPKKKRKVG (SEQ ID NO: 10) ({5(6)‑FAM}-CGGPKKKRKVG) [FAM-SV40, fluorescent dye-modified peptide, linear]” was tested, and the encapsulation [1] was “A (“A” represents peptides with three times of confirmation of encapsulation.)” and the “fluorescence intensity of cells by FACS” value [2] was “not observed”.
